In patent US20230346967A1 (published 2023):

B1: humanized anti-TfR Fab 3A4 VH3/Vκ4 conjugated to DMPK-targeting oligonucleotide ASO300 (Fab, V domains shown)
VH: EVQLVQSGSELKKPGASVKVSCTASGFNIKDDYMYWVRQPPGKGLEWIGWIDPENGDTEYASKFQDRVTVTADTSTNTAYMELSSLRSEDTAVYYCTLWLRRGLDYWGQGTLVTVSS
VL: DIVMTQSPLSLPVTPGEPASISCRSSKSLLHSNGYTYLFWFQQRPGQSPRLLIYRMSNLASGVPDRFSGSGSGTDFTLKISRVEAEDVGVYYCMQHLEYPFTFGGGTKVEIKR
modifications: DMPK-targeting oligonucleotide ASO300 conjugated to the Fab; chain and residue not stated for this example
notes: The oligonucleotide may sit on either chain; also called 3A4 (VH3/Vk4) conjugate; DMPK oligo conjugate
B2: humanized anti-TfR Fab 3M12 VH4/Vκ3 (Fab, V domains shown)
VH: QVQLQESGPGLVKPSQTLSLTCTVTGYSITSGYYWNWIRQPPGKGLEWIGYITFDGANNYNPSLKNRVSISRDTSKNQFSLKLSSVTAEDTATYYCTRSSYDYDVLDYWGQGTTVTVSS
VL: DIQMTQSPSSLSASVGDRVTITCRASQDISNFLNWYQQKPGQPVKLLIYYTSRLHSGVPSRFSGSGSGTDFTLTISSLQPEDFATYYCQQGHTLPYTFGQGTKLEIKR
notes: also called 3M12 (VH4/Vk3); 3M12 VH4/VK3

Assays:
recombinant human TfR1 = target: T1, recombinant human TfR1 (human, UniProt P02786 89-760); experiment: printed: DMPK oligo conjugate binding to hTfR1
T1 construct: also called hTfR1; huTfR1
T1 sequence (P02786 89-760 limits assumed): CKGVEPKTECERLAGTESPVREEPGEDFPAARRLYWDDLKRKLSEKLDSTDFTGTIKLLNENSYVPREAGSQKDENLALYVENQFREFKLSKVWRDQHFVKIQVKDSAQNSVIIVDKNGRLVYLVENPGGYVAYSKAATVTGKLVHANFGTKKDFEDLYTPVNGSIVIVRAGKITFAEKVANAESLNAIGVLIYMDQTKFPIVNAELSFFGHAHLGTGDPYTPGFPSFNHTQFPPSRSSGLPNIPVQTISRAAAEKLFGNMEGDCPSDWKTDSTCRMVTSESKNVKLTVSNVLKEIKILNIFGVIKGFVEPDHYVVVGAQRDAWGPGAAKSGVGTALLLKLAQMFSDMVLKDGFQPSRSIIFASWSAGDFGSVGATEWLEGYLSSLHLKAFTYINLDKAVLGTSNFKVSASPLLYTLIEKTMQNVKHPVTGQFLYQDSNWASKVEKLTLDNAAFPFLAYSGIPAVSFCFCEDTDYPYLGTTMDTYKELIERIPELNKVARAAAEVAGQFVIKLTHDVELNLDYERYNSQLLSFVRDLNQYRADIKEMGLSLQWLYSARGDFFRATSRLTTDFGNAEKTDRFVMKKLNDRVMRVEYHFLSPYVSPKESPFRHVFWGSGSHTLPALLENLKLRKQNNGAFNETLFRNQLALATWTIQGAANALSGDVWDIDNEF

recombinant mouse TfR1 = recombinant mouse TfR1 (mouse, UniProt Q62351 89-763); experiment: ELISA, plates precoated with recombinant TfR1
Chain of recombinant mouse TfR1 (Q62351 89-763 limits assumed): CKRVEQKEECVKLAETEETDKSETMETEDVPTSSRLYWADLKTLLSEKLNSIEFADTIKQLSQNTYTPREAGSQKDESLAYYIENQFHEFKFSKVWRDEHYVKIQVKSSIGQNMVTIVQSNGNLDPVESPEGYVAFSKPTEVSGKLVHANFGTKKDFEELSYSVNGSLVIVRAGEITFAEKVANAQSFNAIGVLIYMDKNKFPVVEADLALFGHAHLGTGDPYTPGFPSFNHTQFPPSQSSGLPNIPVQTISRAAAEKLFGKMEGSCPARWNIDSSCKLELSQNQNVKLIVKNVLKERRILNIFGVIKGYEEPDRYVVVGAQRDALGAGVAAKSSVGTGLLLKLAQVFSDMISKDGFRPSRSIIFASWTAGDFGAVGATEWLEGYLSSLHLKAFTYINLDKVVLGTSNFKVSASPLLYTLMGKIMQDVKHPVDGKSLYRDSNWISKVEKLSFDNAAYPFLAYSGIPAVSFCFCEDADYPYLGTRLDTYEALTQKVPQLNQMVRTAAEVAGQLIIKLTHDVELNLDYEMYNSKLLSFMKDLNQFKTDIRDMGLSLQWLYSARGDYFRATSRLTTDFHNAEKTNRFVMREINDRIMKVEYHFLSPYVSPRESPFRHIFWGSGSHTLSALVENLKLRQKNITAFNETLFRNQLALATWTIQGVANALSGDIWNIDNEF
Description: (§1) Serial dilutions of the Fab were added to plates precoated with recombinant human, cynomolgus monkey, mouse, or rat TfR1. After a short incubation, binding of the Fab was quantified by addition of a fluorescently tagged anti-(H+L) IgG secondary antibody and measurement of fluorescence intensity at 495 nm excitation and 520 nm emission.

recombinant rat TfR1 = recombinant rat TfR1 (rat, UniProt Q99376 89-761, limits assumed); experiment: ELISA, plates precoated with recombinant TfR1
Chain of recombinant rat TfR1 (Q99376 89-761 limits assumed): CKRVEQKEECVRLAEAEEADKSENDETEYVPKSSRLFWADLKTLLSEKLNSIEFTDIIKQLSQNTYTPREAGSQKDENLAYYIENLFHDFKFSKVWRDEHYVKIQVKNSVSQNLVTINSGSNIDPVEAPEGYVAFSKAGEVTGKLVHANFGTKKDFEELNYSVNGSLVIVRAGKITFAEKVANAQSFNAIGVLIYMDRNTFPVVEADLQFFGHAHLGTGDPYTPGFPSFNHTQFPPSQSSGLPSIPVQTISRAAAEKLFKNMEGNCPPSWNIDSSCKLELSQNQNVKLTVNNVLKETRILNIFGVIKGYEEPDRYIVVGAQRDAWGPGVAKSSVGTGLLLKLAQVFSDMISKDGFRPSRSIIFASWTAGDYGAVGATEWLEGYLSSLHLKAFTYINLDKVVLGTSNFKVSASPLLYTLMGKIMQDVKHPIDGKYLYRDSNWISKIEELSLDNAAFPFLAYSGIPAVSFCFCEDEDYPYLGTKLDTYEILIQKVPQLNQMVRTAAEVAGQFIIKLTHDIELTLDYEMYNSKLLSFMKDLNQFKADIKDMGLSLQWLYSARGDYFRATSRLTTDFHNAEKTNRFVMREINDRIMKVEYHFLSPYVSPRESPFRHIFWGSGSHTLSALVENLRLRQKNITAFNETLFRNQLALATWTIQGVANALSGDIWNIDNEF
Description: as §1

recombinant human TfR2 = target: T2, recombinant human TfR2 (human, UniProt Q9UP52 105-801, limits assumed); experiment: SPR
T2 construct: also called hTfR2; transferrin receptor 2
T2 sequence (looked up): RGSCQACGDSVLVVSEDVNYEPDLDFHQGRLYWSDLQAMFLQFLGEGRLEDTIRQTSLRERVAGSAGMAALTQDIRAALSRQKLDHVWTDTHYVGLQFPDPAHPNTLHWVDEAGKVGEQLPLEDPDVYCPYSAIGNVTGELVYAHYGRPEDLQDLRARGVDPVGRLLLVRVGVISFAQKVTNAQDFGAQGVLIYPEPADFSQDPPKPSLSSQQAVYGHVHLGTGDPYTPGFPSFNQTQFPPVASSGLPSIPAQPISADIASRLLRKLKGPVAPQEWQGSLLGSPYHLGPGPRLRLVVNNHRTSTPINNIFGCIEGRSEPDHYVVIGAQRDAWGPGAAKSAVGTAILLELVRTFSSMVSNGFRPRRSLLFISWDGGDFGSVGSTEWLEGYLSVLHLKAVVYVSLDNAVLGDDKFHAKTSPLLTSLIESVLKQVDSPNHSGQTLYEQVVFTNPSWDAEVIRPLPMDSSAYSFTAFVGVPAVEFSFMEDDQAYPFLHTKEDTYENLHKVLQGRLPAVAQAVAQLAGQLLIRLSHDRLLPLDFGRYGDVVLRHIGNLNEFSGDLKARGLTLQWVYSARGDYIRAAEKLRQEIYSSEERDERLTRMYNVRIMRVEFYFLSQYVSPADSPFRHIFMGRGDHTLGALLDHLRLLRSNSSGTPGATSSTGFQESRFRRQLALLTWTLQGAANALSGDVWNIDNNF

Row | Binder | EC50 (recombinant human TfR1) | binding result (recombinant mouse TfR1) | binding result (recombinant rat TfR1) | binding result (recombinant human TfR2)
1 | B1 | 2.84 nM |  |  | 
2 | B2 |  | no binding | no binding | no binding
